Reference: patent CN112125972A (SINOCELLTECH LTD, dated 2020)

Assays:
Assay in all cases: indirect ELISA, VLP coated at 2 μg/mL, antibody at 10 ng/mL
HPV52 VLP = target: T1, HPV52 VLP (Human papillomavirus type 52, UniProt Q05138 27-529)
T1 construct: also called HPV52完整VLP蛋白
T1 sequence: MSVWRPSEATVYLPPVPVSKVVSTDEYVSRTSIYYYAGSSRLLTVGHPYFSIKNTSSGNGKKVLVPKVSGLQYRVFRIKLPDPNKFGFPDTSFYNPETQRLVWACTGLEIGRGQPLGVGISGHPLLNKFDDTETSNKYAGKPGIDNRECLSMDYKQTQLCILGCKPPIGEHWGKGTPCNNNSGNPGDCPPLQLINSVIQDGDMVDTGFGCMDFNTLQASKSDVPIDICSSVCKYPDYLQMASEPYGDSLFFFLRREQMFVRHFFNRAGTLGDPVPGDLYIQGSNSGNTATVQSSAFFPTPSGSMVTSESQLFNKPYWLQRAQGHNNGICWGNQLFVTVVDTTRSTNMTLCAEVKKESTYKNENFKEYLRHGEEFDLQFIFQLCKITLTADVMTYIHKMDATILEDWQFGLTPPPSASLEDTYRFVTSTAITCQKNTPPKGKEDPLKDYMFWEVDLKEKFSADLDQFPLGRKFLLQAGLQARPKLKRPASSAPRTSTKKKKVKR

HPV59 VLP = target: T2, HPV59 VLP (Human papillomavirus type 59)
T2 construct: also called HPV59完整VLP蛋白

HPV11 VLP = target: T3, HPV11 VLP (Human papillomavirus type 11, UniProt P04012 1-501)
T3 construct: also called HPV11完整VLP蛋白
T3 sequence: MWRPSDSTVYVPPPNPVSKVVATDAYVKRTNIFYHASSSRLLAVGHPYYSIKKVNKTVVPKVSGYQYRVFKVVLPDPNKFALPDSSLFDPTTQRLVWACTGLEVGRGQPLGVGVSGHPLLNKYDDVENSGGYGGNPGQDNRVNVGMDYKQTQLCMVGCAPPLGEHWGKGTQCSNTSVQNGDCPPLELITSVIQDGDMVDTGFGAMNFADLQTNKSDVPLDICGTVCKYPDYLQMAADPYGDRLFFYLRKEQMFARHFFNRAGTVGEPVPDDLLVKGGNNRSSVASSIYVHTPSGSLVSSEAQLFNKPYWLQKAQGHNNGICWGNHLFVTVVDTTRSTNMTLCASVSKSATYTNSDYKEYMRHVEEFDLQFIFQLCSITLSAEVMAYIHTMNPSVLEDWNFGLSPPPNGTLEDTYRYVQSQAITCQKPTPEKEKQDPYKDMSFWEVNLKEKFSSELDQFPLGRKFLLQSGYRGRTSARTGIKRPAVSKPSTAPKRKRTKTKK

HPV18 VLP = target: T4, HPV18 VLP (Human papillomavirus type 18, UniProt P06794 62-568)
T4 construct: also called HPV18完整VLP蛋白
T4 sequence: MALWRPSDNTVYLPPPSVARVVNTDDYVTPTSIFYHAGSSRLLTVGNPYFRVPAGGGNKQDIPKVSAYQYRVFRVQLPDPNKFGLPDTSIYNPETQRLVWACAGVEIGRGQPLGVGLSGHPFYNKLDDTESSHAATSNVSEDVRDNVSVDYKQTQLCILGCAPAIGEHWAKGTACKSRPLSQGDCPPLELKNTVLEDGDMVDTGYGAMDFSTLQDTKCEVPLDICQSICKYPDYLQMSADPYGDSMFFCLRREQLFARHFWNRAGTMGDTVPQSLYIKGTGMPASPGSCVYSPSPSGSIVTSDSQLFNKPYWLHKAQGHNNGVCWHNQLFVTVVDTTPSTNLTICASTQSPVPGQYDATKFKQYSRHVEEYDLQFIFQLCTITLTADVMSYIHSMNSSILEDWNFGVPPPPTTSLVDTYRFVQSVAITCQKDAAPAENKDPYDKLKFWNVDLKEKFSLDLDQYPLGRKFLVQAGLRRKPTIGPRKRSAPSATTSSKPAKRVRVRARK

HPV31 VLP = target: T5, HPV31 VLP (Human papillomavirus type 31, UniProt P17388 1-504)
T5 construct: also called HPV31完整VLP蛋白
T5 sequence: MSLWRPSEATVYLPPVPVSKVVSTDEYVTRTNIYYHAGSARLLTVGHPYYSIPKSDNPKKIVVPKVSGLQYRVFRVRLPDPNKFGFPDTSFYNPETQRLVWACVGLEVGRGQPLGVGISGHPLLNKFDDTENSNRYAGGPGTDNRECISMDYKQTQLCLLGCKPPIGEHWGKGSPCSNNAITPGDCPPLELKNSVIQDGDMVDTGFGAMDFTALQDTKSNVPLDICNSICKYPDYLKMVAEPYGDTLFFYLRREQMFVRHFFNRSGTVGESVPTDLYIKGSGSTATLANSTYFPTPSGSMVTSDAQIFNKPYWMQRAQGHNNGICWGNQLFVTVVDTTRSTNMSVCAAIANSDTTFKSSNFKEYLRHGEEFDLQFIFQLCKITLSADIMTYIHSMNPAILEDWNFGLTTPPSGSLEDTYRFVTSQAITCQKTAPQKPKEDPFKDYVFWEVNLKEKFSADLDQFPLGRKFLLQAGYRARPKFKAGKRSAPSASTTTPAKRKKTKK

HPV33 VLP = target: T6, HPV33 VLP (Human papillomavirus type 33, UniProt P06416 1-499)
T6 construct: also called HPV33完整VLP蛋白
T6 sequence: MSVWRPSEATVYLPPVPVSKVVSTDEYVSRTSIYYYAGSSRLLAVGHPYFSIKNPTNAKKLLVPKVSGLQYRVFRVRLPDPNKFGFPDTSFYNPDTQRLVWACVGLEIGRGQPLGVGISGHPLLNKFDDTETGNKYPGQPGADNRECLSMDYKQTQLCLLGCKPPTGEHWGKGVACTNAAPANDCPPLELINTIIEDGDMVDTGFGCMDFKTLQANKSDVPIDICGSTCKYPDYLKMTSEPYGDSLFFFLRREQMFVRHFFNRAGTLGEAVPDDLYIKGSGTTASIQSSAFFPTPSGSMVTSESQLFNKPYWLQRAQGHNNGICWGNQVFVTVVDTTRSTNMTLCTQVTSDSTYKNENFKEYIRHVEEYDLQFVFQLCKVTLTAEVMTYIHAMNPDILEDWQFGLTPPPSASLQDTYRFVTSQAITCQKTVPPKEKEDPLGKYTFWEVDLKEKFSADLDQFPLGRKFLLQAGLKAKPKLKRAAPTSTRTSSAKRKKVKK

B1: HPV 16 R001 (antibody, V domains shown)
VH: QSVKESEGRLVTPGTPLTLTCTASGFTMSRYHMTWVRQAPGKGLEWIGIIYARNSDTYYANWAKGRFTISKTSTTVDLKITSPTIEDTATYFCARVDSDSSGAFDRLDLWGQGTLVTVSS
VL: DPMLTQTAASVEVAVGGTVTIKCQASQSIGGYLSWYQQKPGQRPKLLIYRASTLASGVPSRFKGSGSGTEYTLTFSGVECADAAAYYCQQGYTSSDINNAFGGGTEVVVK
notes: An HRP-labelled form served as detection antibody in the sandwich ELISA; also called HPV16.001; 单克隆抗体HPV 16 R001
How did the OD450-blank (HPV52 VLP) turn out when B1 was run?
Its OD450-blank is 0.003 OD450.

And the OD450-blank (HPV59 VLP)?
Its OD450-blank is 0 OD450.

What about the OD450-blank (HPV11 VLP) of the same binder?
Its OD450-blank is 0.001 OD450.

What about the OD450-blank (HPV18 VLP) of the same binder?
Its OD450-blank is 0 OD450.

And the OD450-blank (HPV31 VLP)?
The OD450-blank was 0.002 OD450.

What about the OD450-blank (HPV33 VLP) of the same binder?
Its OD450-blank is 0.001 OD450.
